T1: human PSGL-1 on cells (Sp2/0-hPSGL-1 transfectants; activated human primary T cells) (human, UniProt Q14242 42-412)
T1 sequence (looked up): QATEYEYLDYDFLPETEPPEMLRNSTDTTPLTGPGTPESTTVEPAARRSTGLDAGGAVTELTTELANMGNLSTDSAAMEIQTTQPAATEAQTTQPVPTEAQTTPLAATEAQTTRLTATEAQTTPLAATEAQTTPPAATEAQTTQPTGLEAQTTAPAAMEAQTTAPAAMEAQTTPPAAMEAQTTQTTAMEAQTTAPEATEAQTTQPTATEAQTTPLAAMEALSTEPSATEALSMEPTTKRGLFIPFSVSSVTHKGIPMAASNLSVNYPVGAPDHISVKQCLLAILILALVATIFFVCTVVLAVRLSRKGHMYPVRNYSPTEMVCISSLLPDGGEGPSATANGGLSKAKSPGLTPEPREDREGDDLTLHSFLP

T2: human PSGL-1 (extracellular domain) recombinant protein (SinoBiological, 13863-H08H) (human, UniProt Q14242 42-320)
T2 construct: extracellular domain; Bought protein; also called recombinant PSGL-1; hPSGL-1 extracellular domain antigen
T2 sequence (looked up): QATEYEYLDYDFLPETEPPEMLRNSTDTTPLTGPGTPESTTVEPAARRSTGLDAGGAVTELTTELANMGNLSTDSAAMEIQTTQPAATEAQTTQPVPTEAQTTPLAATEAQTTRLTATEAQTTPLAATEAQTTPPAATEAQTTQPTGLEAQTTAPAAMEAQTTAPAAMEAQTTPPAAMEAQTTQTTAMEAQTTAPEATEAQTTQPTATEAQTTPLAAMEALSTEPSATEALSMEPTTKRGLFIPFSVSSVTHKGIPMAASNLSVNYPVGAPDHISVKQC

B1: 15A7H-IgM (antibody)
heavy: EVQLVESGGGLVQPGGSLRLSCAASGFTFSSFGMHWVRQAPGKGLEWVAYINGGSSTIFYANAVKGRFTISRDNAKNTLYLQMNSLRAEDTAVYYCARYASYGGGAMDYWGQGTLVTVSSGSASAPTLFPLVSCENSPSDTSSVAVGCLAQDFLPDSITFSWKYKNNSDISSTRGFPSVLRGGKYAATSQVLLPSKDVMQGTDEHVVCKVQHPNGNKEKNVPLPVIAELPPKVSVFVPPRDGFFGNPRKSKLICQATGFSPRQIQVSWLREGKQVGSGVTTDQVQAEAKESGPTTYKVTSTLTIKESDWLSQSMFTCRVDHRGLTFQQNASSMCVPDQDTAIRVFAIPPSFASIFLTKSTKLTCLVTDLTTYDSVTISWTRQNGEAVKTHTNISESHPNATFSAVGEASICEDDWNSGERFTCTVTHTDLPSPLKQTISRPKGVALHRPDVYLLPPAREQLNLRESATITCLVTGFSPADVFVQWMQRGQPLSPEKYVTSAPMPEPQAPGRYFAHSILTVSEEEWNTGETYTCVVAHEALPNRVTERTVDKSTGKPTLYNVSLVMSDTAGTCY
light: DIQMTQSPSSLSASVGDRVTITCRSSQSIVHNDGNTYFEWYQQKPGKAPKLLIYKVSNRFSGVPSRFSGSGSGTHFTLTISSLQPEDFATYYCFQGSYVPLTFGQGTKVEIKRTVAAPSVFIFPPSDEQLKSGTASVVCLLNNFYPREAKVQWKVDNALQSGNSQESVTEQDSKDSTYSLSSTLTLSKADYEKHKVYACEVTHQGLSSPVTKSFNRGEC
chain: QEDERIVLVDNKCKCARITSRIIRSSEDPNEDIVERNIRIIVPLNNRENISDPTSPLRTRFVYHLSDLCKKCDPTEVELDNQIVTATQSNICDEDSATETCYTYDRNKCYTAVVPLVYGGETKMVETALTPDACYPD
notes: also called 15A7H-IgM antibody; pentameric 15A7H-IgM
B2: 15A7H-IgG4 (antibody, V domains shown)
VH: EVQLVESGGGLVQPGGSLRLSCAASGFTFSSFGMHWVRQAPGKGLEWVAYINGGSSTIFYANAVKGRFTISRDNAKNTLYLQMNSLRAEDTAVYYCARYASYGGGAMDYWGQGTLVTVSS
VL: DIQMTQSPSSLSASVGDRVTITCRSSQSIVHNDGNTYFEWYQQKPGKAPKLLIYKVSNRFSGVPSRFSGSGSGTHFTLTISSLQPEDFATYYCFQGSYVPLTFGQGTKVEIKR
notes: Bivalent IgG4 antibody described in WO 2012/174001; In some functional assays it was used with a mouse anti-human IgG Fc-gamma cross-linker (CL); also called anti-PSGL-1 bivalent mAb 15A7H; 15A7H-IgG4 + CL (when used with cross-linker)

Tests used:
[1] = target: T1, human PSGL-1 on cells (Sp2/0-hPSGL-1 …); test: cell-based or functional assay
[2] = target: T2, human PSGL-1 (extracellular domain) …; test: ELISA, plate coated with recombinant PSGL-1 at high density (0.5 µg/mL), FIG. 3A
Description: (§1) 96-well NUNC-Immuno plates (Thermo Fisher, Cat #442404) were coated with 100 μL per well of 0.5, 0.05, or 0.03 pg/mL human PSGL-1 (extracellular domain) recombinant protein (SinoBiological, 13863-H08H) overnight at 4° C. Plates were then washed with Wash Buffer (1×PBS with 0.05% Tween 20, pH 7.4) and blocked with 0.5% (w/v) BSA-PBS for 60 min at room temperature on a plate shaker set to 300 rpm. After blocking, 100 μL of serial dilutions of 15A7H-IgM, 15A7H-IgG4, and controls at concentration range of 5000 pM-4.89 pM were added to the wells and incubated at room temperature for 1 hour. […] After 5 final washes using Wash Buffer, the plates were read out using TMB substrate (followed the instruction manual of BD OptEIA. Cat. 555214) by incubating the wells with […] each of freshly prepared TMB Working Solution for 5 min followed by the addition of sulfuric acid to stop the reaction. Finally, the data of absorbance at 450 nm (OD450 nm) were collected on an ELISA plate reader and analyzed with SoftMax using a 4-parameter logistic model.

[3] = target: T2, human PSGL-1 (extracellular domain) …; test: ELISA, plate coated with recombinant PSGL-1 at lower density (0.03 pg/mL as printed), FIG. 3C
Description: as §1

[4] = target: T2, human PSGL-1 (extracellular domain) …; test: ELISA, plate coated with recombinant PSGL-1 at lower density (0.05 pg/mL as printed), FIG. 3B
Description: as §1

Binder	EC50 (nM) of apoptosis of activated T cells, Donor 1 [1] [nM]	EC50 (nM) of apoptosis of activated T cells, Donor 2 [1] [nM]	EC50 (nM) of apoptosis of activated T cells, Donor 3 [1] [nM]	EC50 (µg/mL) of apoptosis of activated T cells, Donor 1 [1] [µg/mL]	EC50 (µg/mL) of apoptosis of activated T cells, Donor 2 [1] [µg/mL]	EC50 (µg/mL) of apoptosis of activated T cells, Donor 3 [1] [µg/mL]	EC50 [2] [nM]	EC50 [3] [nM]	EC50 [4] [nM]
B1	0.0177	0.0152	0.0096	0.0156	0.0134	0.00844	0.0926	0.0396	0.0459
B2							0.141	0.12	0.0974

From US20260250411A1 (ALTRUBIO, published 2026)
